Molecular target: chimeric mouse h-ferritin-M6A (recombinant) (mouse | not stated)
Assay: SEC; HiLoad 26/60 Superdex 200; 20 mM Tris-HCl pH 8, 200 mM KCl, 10% glycerol, 2 mM TCEP; elution volume compared with horse spleen ferritin (~440 kDa)

stoichiometry N: 24
Substance: chimeric mouse h-ferritin-M6A (recombinant)

Source: paper PMC4876375
